The values below come from patent publication US20200102373A1.

This experiment concerns the target biotin-labeled HA peptide. The experiment can be described thus: SPR (OpenSPR), biotin-labeled HA peptide on a Streptavidin chip, purified FB-GFP in solution, one-to-one model, two independent experiments.

As usually defined, the Kd is the constant that tells how readily two partners part at equilibrium. Read a high Kd as lower affinity. The substance “purified recombinant HA frankenbody fused with mEGFP and a hexahistidine tag (purified FB-GFP, from E. coli) (scFv)” came in with a Kd of 14.7 nM.
